# Test results from paper PMC5116745, “Importance of the C-terminal histidine residues of Helicobacter pylori GroES for Toll-like receptor 4 binding and interleukin-8 cytokine production” (Scientific Reports, 2016).
# Substitutions are numbered along the chain they refer to. Numbers in names are those of the source.
# B1: Helicobacter pylori GroES (HpGroES), wild type (natural protein)
# chain: MKFQPLGERVLVERLEEENKTSSGIIIPDNAKEKPLMGVVKAVSHKISEGCKCVKEGDVIAFGKYKGAEIVLDGTEYMVLELEDILGIVGSGSCCHTGNHDHKHAKEHEACCHDHKKH
# notes: GroES (HspA) of Helicobacter pylori; domain A plus C-terminal domain B (residues 91-118); Protein was dialysed with 4 molar equivalents of NiSO4 before size exclusion (nickel-loaded); also called WT; heat shock protein (HSP) A; source: E. coli M15 (pQE30), purified (Ni2+-chelating Sepharose, Superdex 200 size exclusion)
# B2: HpGroES H104A mutant (natural protein, Helicobacter pylori, UniProt P0A0R3 1-118, looked up)
# chain: B1 chain with H104A
# notes: GroES (HspA) of Helicobacter pylori with a point mutation in domain B; Same construct as m1 with the mutation; nickel-loaded during purification; source: E. coli M15 (pQE30), purified (Ni2+-chelating Sepharose, Superdex 200 size exclusion)
# B3: HpGroES H113A mutant (natural protein, Helicobacter pylori, UniProt P0A0R3 1-118, looked up)
# chain: B1 chain with H113A
# notes: as for B2
# B4: HpGroES H115A mutant (natural protein, Helicobacter pylori, UniProt P0A0R3 1-118, looked up)
# chain: B1 chain with H115A
# notes: as for B2
# B5: HpGroES H102A mutant (natural protein, Helicobacter pylori, UniProt P0A0R3 1-118, looked up)
# chain: B1 chain with H102A
# notes: as for B2
# B6: HpGroES H96A mutant (natural protein, Helicobacter pylori, UniProt P0A0R3 1-118, looked up)
# chain: B1 chain with H96A
# notes: as for B2
# B7: HpGroES H118A mutant (natural protein, Helicobacter pylori, UniProt P0A0R3 1-118, looked up)
# chain: B1 chain with H118A
# notes: as for B2
# B8: HpGroES H108A mutant (natural protein, Helicobacter pylori, UniProt P0A0R3 1-118, looked up)
# chain: B1 chain with H108A
# notes: as for B2
# B9: HpGroES H100A mutant (natural protein, Helicobacter pylori, UniProt P0A0R3 1-118, looked up)
# chain: B1 chain with H100A
# notes: as for B2
# Molecular target: recombinant human TLR4 protein (human) (UniProt O00206)
# Sequence (O00206 24-631): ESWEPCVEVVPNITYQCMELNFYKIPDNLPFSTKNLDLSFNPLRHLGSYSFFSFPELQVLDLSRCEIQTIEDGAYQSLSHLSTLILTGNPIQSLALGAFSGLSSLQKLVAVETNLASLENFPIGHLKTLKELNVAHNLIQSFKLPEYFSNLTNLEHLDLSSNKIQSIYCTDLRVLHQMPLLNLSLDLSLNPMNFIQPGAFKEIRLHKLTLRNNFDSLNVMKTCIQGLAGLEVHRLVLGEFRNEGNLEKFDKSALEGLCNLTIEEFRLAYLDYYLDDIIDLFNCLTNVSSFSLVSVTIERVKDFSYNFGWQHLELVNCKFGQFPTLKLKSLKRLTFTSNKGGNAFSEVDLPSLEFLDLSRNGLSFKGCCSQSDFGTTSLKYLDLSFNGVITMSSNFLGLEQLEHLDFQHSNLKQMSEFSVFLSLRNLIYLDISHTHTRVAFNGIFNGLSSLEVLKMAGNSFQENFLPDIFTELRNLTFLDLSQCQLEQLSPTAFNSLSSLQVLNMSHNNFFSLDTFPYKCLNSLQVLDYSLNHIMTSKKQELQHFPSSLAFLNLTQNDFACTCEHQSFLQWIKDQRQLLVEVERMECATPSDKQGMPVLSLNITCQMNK
# Experiment: SPR; Biacore T200; TLR4 immobilised on CM5 chip (6000 RU); HpGroES proteins flowed at 7.8125-1000 nM, 30 μl/min, 25 °C; PBS with 0.05% P20; Kd from saturation curves (GraphPad Prism)
# Settings: not given
row,Molecule,Kd [nM]
1,HpGroES H100A mutant (from UniProt P0A0R3 1-118) (natural protein),> 1000

# Molecular target: T1, recombinant human TLR4 protein (human, UniProt O00206 24-631)
# T1 construct: Toll-like receptor 4, human, recombinant protein from R&D Systems; R&D Systems' recombinant human TLR4 is, as far as recalled, the extracellular domain with a His tag (some products are a complex with MD-2); also called Toll-like receptor 4; source: bought: R&D Systems
# T1 sequence (O00206 24-631): as above
# Experiment: as above
# Settings: both partners purified
row,Molecule,Kd [nM]
1,B1,100
2,B2,100
3,B3,> 1000
4,B4,150
5,B5,> 1000
6,B6,110
7,B7,> 1000
8,B8,> 1000

# Molecular target: the molecule itself
# Experiment: SEC; HiLoad 16/600 Superdex 200 pg; 150 mM NaCl, 25 mM potassium phosphate pH 7.4, 1 mM DTT, 0.3% glycerol; 2 ml/min
# Settings: not given
row,Molecule,stoichiometry N
1,B1,7
2,B2,7
3,B3,7
4,B4,7
5,B5,7
6,B9,7
7,B6,7
8,B7,7
9,B8,7
